# Results published in US20230272415.
# Experiments:
# Assay in all cases: cell_activity
# [1] = system: ZFN 59581 (synthetic construct); details: pair with 59580; 6 ug mRNA, activated T cells; 83 at 2 ug, 72 at 0.5 ug
# [2] = system: ZFN 59440 (synthetic construct); details: pair with 59441; 6 ug mRNA, activated T cells; 82 at 2 ug, 59 at 0.5 ug
# [3] = system: ZFN 59580 (synthetic construct); details: pair with 59581; 6 ug mRNA, activated T cells; 83 at 2 ug, 72 at 0.5 ug
# [4] = system: ZFN 59489 (synthetic construct); details: pair with 59488; 6 ug mRNA, activated T cells; 84 at 2 ug, 60 at 0.5 ug
# [5] = system: ZFN 59557 (synthetic construct); details: pair with 59558; 6 ug mRNA, activated T cells; 80 at 2 ug, 55 at 0.5 ug
# [6] = system: ZFN 59558 (synthetic construct); details: pair with 59557; 6 ug mRNA, activated T cells; 80 at 2 ug, 55 at 0.5 ug
# [7] = system: ZFN 59488 (synthetic construct); details: pair with 59489; 6 ug mRNA, activated T cells; 84 at 2 ug, 60 at 0.5 ug
# [8] = system: ZFN 59441 (synthetic construct); details: pair with 59440; 6 ug mRNA, activated T cells; 82 at 2 ug, 59 at 0.5 ug
sequence,measurement,setting,value
ATAGTGCTGCACAAGGCTGACCACATCC (double strand) [CISH exon 3 target of 59581],activity,[1],82 % cleavage
CCAGCAAAGGACGAGGTCTAGAAGGCAG (double strand) [CISH exon 2 target of 59440],activity,[2],84 % cleavage
CCGGAAAGGCCAGGATGCGTGGCCTGGA (double strand) [CISH exon 3 target of 59580],activity,[3],82 % cleavage
GAGGAGGTGGCAGAGGGTACCCCAGCCC (double strand) [CISH exon 2 target of 59489],activity,[4],89 % cleavage
GAGTCCAGACGGAAGCTGGAGTCGGCAT (double strand) [CISH exon 3 target of 59557],activity,[5],84 % cleavage
GATGCGTGGCCTGGACAAGCAGTTGGAG (double strand) [CISH exon 3 target of 59558],activity,[6],84 % cleavage
GGAAGGCCCCAGCAGGCAAGGGCTGCAT (double strand) [CISH exon 2 target of 59488],activity,[7],89 % cleavage
GTGGAGCGGACTGGGCAGCGGCCCCTGT (double strand) [CISH exon 2 target of 59441],activity,[8],84 % cleavage
